IntAct's records for PubMed 21454543

Each substance was assayed against lrrk2_human LRRK2 (UniProt Q5S007).

Row | Substance | effect of a mutation on the interaction
1 | Ras-related C3 botulinum toxin substrate 1 (Homo sapiens) (from UniProt P63000) T17N | decreasing interaction

Each substance was assayed against rac1_human RAC1 (UniProt P63000).

Row | Substance | effect of a mutation on the interaction
2 | Leucine-rich repeat serine/threonine-protein kinase 2 (Homo sapiens), Q5S007 G2019S | decreasing interaction
3 | Leucine-rich repeat serine/threonine-protein kinase 2 (Homo sapiens), Q5S007 I2020T | increasing interaction
4 | Leucine-rich repeat serine/threonine-protein kinase 2 (Homo sapiens), Q5S007 K1906M | decreasing interaction
5 | Leucine-rich repeat serine/threonine-protein kinase 2 (Homo sapiens), Q5S007 R1441C | disrupting interaction
6 | Leucine-rich repeat serine/threonine-protein kinase 2 (Homo sapiens), Q5S007 Y1699C | increasing interaction
